The source made the active and inactive calls.
Key:
[1] = organism: Homo sapiens; assay: Activity at human recombinant UCK by Michaelis-Menten equation analysis
[2] = Inhibition of human recombinant UCK by Double reciprocal plot analysis
[3] = organism: Homo sapiens; assay: Binding affinity to human recombinant UCK dCMP binding site
[4] = organism: Homo sapiens; assay: Binding affinity to human recombinant UCK ATP binding site
[5] = Displacement of Mant-ATP from human recombinant UCK by fluorescence competition assay; settings: read-out: Kd(app)
[6] = organism: Homo sapiens; assay: Displacement of MABA-CDP from human recombinant UCK by fluorescence competition assay
[7] = target: Thymidine kinase, cytosolic (Homo sapiens) (UniProt P04183); assay: Inhibition of human recombinant TK1-mediated thymidine phosphorylation ar 0.3 mM
Sequence of Thymidine kinase, cytosolic (Homo sapiens) (P04183 whole entry): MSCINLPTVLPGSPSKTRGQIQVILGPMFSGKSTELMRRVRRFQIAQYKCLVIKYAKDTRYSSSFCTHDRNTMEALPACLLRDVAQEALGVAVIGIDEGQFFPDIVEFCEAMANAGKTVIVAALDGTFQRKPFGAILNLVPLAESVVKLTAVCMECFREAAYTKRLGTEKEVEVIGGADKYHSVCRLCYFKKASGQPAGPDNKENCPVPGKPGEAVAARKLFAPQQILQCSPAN

[8] = target: Thymidine kinase 2, mitochondrial (Homo sapiens) (UniProt O00142); assay: Inhibition of human recombinant TK2-mediated thymidine phosphorylation ar 0.3 mM
Sequence of Thymidine kinase 2, mitochondrial (Homo sapiens) (O00142 whole entry): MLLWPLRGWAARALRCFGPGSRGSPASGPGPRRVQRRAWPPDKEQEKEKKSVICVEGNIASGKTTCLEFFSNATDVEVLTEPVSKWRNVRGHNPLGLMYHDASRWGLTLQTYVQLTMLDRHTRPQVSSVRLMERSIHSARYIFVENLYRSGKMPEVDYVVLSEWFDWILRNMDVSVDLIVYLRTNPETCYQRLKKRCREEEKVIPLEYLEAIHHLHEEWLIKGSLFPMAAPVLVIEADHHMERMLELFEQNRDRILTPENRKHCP

[9] = substrate: Cc1cn(C/C=C/CCP(=O)(O)O)c(=O)[nH]c1=O; assay: (§1) Activity at human recombinant TMPK by Michaelis-Menten equation analysis
[10] = substrate: Cc1cn(C/C=C/CP(=O)(O)O)c(=O)[nH]c1=O; assay: as §1
[11] = substrate: Cc1cn(C/C=C/P(=O)(O)O)c(=O)[nH]c1=O; assay: as §1
[12] = substrate: Cc1cn([C@H]2C[C@H](O)[C@@H](COP(=O)(O)O)O2)c(=O)[nH]c1=O; assay: as §1
[13] = substrate: O=c1[nH]c(=O)n(C/C=C/CCP(=O)(O)O)cc1Br; assay: as §1
[14] = substrate: O=c1[nH]c(=O)n(C/C=C/CCP(=O)(O)O)cc1Cl; assay: as §1
[15] = substrate: O=c1[nH]c(=O)n(C/C=C/CCP(=O)(O)O)cc1F; assay: as §1
[16] = substrate: O=c1[nH]c(=O)n(C/C=C/CP(=O)(O)O)cc1Br; assay: as §1
[17] = substrate: O=c1[nH]c(=O)n(C/C=C/CP(=O)(O)O)cc1Cl; assay: as §1
[18] = substrate: O=c1[nH]c(=O)n(C/C=C/CP(=O)(O)O)cc1F; assay: as §1
[19] = substrate: O=c1[nH]c(=O)n([C@H]2C[C@H](O)[C@@H](COP(=O)(O)O)O2)cc1Br; assay: as §1
[20] = substrate: O=c1ccn(C/C=C/CCP(=O)(O)O)c(=O)[nH]1; assay: as §1
[21] = substrate: O=c1ccn(C/C=C/CP(=O)(O)O)c(=O)[nH]1; assay: as §1
[22] = substrate: O=c1ccn([C@H]2C[C@H](O)[C@@H](COP(=O)(O)O)O2)c(=O)[nH]1; assay: as §1
[23] = substrate: Cc1cn(C/C=C/CCP(=O)(O)O)c(=O)[nH]c1=O; assay: (§2) Ratio of kcat/km for human recombinant TMPK by Michaelis-Menten equation analysis
[24] = substrate: Cc1cn(C/C=C/CP(=O)(O)O)c(=O)[nH]c1=O; assay: as §2
[25] = substrate: Cc1cn(C/C=C/P(=O)(O)O)c(=O)[nH]c1=O; assay: as §2
[26] = substrate: Cc1cn([C@H]2C[C@H](N=[N+]=[N-])[C@@H](COP(=O)(O)O)O2)c(=O)[nH]c1=O; assay: as §2
[27] = substrate: Cc1cn([C@H]2C[C@H](O)[C@@H](COP(=O)(O)O)O2)c(=O)[nH]c1=O; assay: as §2
[28] = substrate: O=c1[nH]c(=O)n(C/C=C/CCP(=O)(O)O)cc1Br; assay: as §2
[29] = substrate: O=c1[nH]c(=O)n(C/C=C/CCP(=O)(O)O)cc1Cl; assay: as §2
[30] = substrate: O=c1[nH]c(=O)n(C/C=C/CCP(=O)(O)O)cc1F; assay: as §2
[31] = substrate: O=c1[nH]c(=O)n(C/C=C/CP(=O)(O)O)cc1Br; assay: as §2
[32] = substrate: O=c1[nH]c(=O)n(C/C=C/CP(=O)(O)O)cc1Cl; assay: as §2
[33] = substrate: O=c1[nH]c(=O)n(C/C=C/CP(=O)(O)O)cc1F; assay: as §2
[34] = substrate: O=c1[nH]c(=O)n(C/C=C/P(=O)(O)O)cc1Cl; assay: as §2
[35] = substrate: O=c1[nH]c(=O)n([C@H]2C[C@H](O)[C@@H](COP(=O)(O)O)O2)cc1Br; assay: as §2
[36] = substrate: O=c1ccn(C/C=C/CCP(=O)(O)O)c(=O)[nH]1; assay: as §2
[37] = substrate: O=c1ccn(C/C=C/CP(=O)(O)O)c(=O)[nH]1; assay: as §2
[38] = substrate: O=c1ccn([C@H]2C[C@H](O)[C@@H](COP(=O)(O)O)O2)c(=O)[nH]1; assay: as §2

In the case of `O=c1[nH]c(=O)n(C/C=C/CP(=O)(O)O)cc1Cl`, the Activity [1] is reported as “inactive”, the Ki [2] is reported as 250 µM and the Activity [3] is reported as “Active”. For the same molecule, the Activity [4] was “Active”, the Kd [5] was 170 µM and the Activity [6] was “inactive”. It also gave an inhibition [7] of 15% and an inhibition [8] of 15%.

B1: Thymidylate kinase (Homo sapiens), P23919 (protein)
chain: MAARRGALIVLEGVDRAGKSTQSRKLVEALCAAGHRAELLRFPERSTEIGKLLSSYLQKKSDVEDHSVHLLFSANRWEQVPLIKEKLSQGVTLVVDRYAFSGVAFTGAKENFSLDWCKQPDVGLPKPDLVLFLQLQLADAAKRGAFGHERYENGAFQERALRCFHQLMKDTTLNWKMVDASKSIEAVHEDIRVLSEDAIRTATEKPLGELWK
With B1 the Km [9] was 100 µM, the kcat [9] was 0.32 s⁻¹ and the Km [10] was 24 µM. The kcat [10] was 0.84 s⁻¹, the Km [11] was 1000 µM and the kcat [11] was 0.6 s⁻¹. For the same molecule, the Km [12] was 20 µM, the kcat [12] was 3 s⁻¹ and the Km [13] was 160 µM. It also gave a kcat [13] of 0.058 s⁻¹, a Km [14] of 150 µM and a kcat [14] of 0.1 s⁻¹. For the same molecule, the Km [15] was 1900 µM, the kcat [15] was 0.09 s⁻¹ and the Km [16] was 20 µM. It also gave a kcat [16] of 0.9 s⁻¹, a Km [17] of 130 µM and a kcat [17] of 0.5 s⁻¹. For the same molecule, the Km [18] was 1000 µM, the kcat [18] was 0.73 s⁻¹ and the Km [19] was 10 µM. It also gave a kcat [19] of 1.2 s⁻¹, a Km [20] of 2500 µM and a kcat [20] of 0.074 s⁻¹. The Km [21] was 1700 µM, the kcat [21] was 0.48 s⁻¹ and the Km [22] was 170 µM. It also gave a kcat [22] of 4.8 s⁻¹, a kcat/Km [23] of 3200 M⁻¹ s⁻¹ and a kcat/Km [24] of 35000 M⁻¹ s⁻¹. For the same molecule, the kcat/Km [25] was 600 M⁻¹ s⁻¹, the kcat/Km [26] was 1000 M⁻¹ s⁻¹ and the kcat/Km [27] was 150000 M⁻¹ s⁻¹. It also gave a kcat/Km [28] of 360 M⁻¹ s⁻¹, a kcat/Km [29] of 660 M⁻¹ s⁻¹ and a kcat/Km [30] of 47 M⁻¹ s⁻¹. The kcat/Km [31] was 45000 M⁻¹ s⁻¹, the kcat/Km [32] was 4100 M⁻¹ s⁻¹ and the kcat/Km [33] was 730 M⁻¹ s⁻¹. For the same molecule, the kcat/Km [34] was 80 M⁻¹ s⁻¹, the kcat/Km [35] was 120000 M⁻¹ s⁻¹ and the kcat/Km [36] was 30 M⁻¹ s⁻¹. For the same molecule, the kcat/Km [37] was 280 M⁻¹ s⁻¹ and the kcat/Km [38] was 28000 M⁻¹ s⁻¹.

Reference: ChEMBL document CHEMBL1649078, “Novel antiviral C5-substituted pyrimidine acyclic nucleoside phosphonates selected as human thymidylate kinase substrates” (J Med Chem, 2011)
